The values below come from patent US20090053725 (United States as represented by Secretary of the Air Force, published 2009).

Data set [1] addresses Ovalbumin (UniProt P01012 P01012:2-386). The data set is described as follows: control protein, no fluorescence increase; same conditions; Example 1 likewise no increase. The settings on record: tags: Sigma-Aldrich; immobilized on maleic anhydride plate; label: Birch Yellow T1 Evitag quantum dot on plus strand; BHQ2 quencher on negative strand; partial duplex, 3' 19 nt of the aptamer paired, 5' single-stranded overhang.

For data set [2], the target named is Shiga toxin (UniProt Q9FBI2;Q7BQ98 Q9FBI2:23-315,Q7BQ98:21-89).
Sequence of Shiga toxin (Q9FBI2 23-315, chain 1 of 2): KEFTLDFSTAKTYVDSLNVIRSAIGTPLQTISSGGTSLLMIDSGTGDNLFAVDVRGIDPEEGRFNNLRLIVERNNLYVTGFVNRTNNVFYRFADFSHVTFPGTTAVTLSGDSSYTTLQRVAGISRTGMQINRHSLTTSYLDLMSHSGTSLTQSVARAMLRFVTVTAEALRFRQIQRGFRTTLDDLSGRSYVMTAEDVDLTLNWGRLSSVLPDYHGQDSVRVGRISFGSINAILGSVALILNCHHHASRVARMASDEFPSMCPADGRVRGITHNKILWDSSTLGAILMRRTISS
Sequence of Shiga toxin (Q7BQ98 21-89, chain 2 of 2): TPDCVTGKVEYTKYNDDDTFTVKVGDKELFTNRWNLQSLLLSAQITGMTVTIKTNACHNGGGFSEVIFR

Sequence of Ovalbumin (P01012 2-386, one chain of several): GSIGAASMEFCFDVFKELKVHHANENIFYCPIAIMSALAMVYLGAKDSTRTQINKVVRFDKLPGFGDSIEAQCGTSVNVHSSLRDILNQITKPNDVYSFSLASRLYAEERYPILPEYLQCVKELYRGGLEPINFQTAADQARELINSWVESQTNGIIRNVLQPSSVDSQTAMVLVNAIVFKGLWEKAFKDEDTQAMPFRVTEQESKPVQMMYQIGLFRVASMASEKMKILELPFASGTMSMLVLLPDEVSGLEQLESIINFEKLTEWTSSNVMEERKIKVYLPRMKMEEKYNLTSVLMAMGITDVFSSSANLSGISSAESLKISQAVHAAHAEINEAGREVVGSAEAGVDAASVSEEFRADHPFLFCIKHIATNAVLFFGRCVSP

B1: STJ-9 annealed quenched complex (Plus STJ-9 / Negative STJ-9) (dsDNA)
DNA 1: GGTAACTAGCATTCATTTCCCACACCCGTCCCGTCCATAT
DNA 2: ATATGGACGGGACGGGTGT
modifications: 3' amine on plus strand; 5' BHQ2 on negative strand
For B1, the binding result in data set [1] is “no binding”.

B2: Plus STJ-9 (ssDNA)
DNA: B1 DNA 1
For B2, the binding result in data set [2] is “binds”.
